Assay results from US20140004106A1.

What was measured:
[1] = target: 28mer peptide of the CXCR5 antigen; assay: ELISA potency (binding); 100 mg/mL, Glycine (20) + Mannitol (15), T zero
[2] = target: 28mer peptide of the CXCR5 antigen; assay: Antigen-ELISA; PBS 155 mM pH 7.50, after mechanical stress 350 rpm 2.5 h
[3] = target: 28mer peptide of the CXCR5 antigen; assay: Antigen-ELISA; Succinate 10 mM pH 6.00, T0
[4] = target: 28mer peptide of the CXCR5 antigen; assay: ELISA potency (binding); 100 mg/mL, Glycine (20), T zero
[5] = target: 28mer peptide of the CXCR5 antigen; assay: Ag-ELISA; DS in PBS, -20°C, 1 month
[6] = target: 28mer peptide of the CXCR5 antigen; assay: ELISA potency (binding); 100 mg/mL, Trehalose (60) + Mannitol (15), 7 days at 40°C
[7] = target: 28mer peptide of the CXCR5 antigen; assay: Antigen-ELISA; PB 10 mM pH 7.00, after 1 week at +40°C
[8] = target: 28mer peptide of the CXCR5 antigen; assay: Antigen-ELISA; PBS 155 mM pH 7.00, T0
[9] = target: 28mer peptide of the CXCR5 antigen; assay: Potency (Antigen ELISA); stored +5°C, 12 months
[10] = target: 28mer peptide of the CXCR5 antigen; assay: Ag-ELISA; DS in PBS, 25°C, 1 month
[11] = target: 28mer peptide of the CXCR5 antigen; assay: Antigen-ELISA; Citrate 10 mM pH 6.50, after mechanical stress 350 rpm 2.5 h
[12] = target: 28mer peptide of the CXCR5 antigen; assay: Antigen-ELISA; PBS 155 mM pH 6.50, after 1 week at +40°C
[13] = target: 28mer peptide of the CXCR5 antigen; assay: Antigen-ELISA; Citrate 10 mM pH 5.00, T0
[14] = target: 28mer peptide of the CXCR5 antigen; assay: Antigen-ELISA; standard run with LA_09_004_3
[15] = target: 28mer peptide of the CXCR5 antigen; assay: Antigen-ELISA; citrate 10 mM prototype D, T0
[16] = target: 28mer peptide of the CXCR5 antigen; assay: Potency (Antigen ELISA); stored -20°C, 9 months
[17] = target: 28mer peptide of the CXCR5 antigen; assay: Potency (Antigen ELISA); stored +25°C, 6 months
[18] = target: 28mer peptide of the CXCR5 antigen; assay: Potency (Antigen ELISA); stored +5°C, 9 months
[19] = target: 28mer peptide of the CXCR5 antigen; assay: Antigen-ELISA; citrate 10 mM prototype B, T0
[20] = target: 28mer peptide of the CXCR5 antigen; assay: Antigen-ELISA; Citrate 10 mM pH 6.50, after 1 week at +40°C
[21] = target: 28mer peptide of the CXCR5 antigen; assay: Antigen-ELISA; standard run with LA_09_004_5
[22] = target: 28mer peptide of the CXCR5 antigen; assay: Antigen-ELISA; PB 5 mM pH 7.00, T0
[23] = target: 28mer peptide of the CXCR5 antigen; assay: Antigen-ELISA; Saline 150 mM pH 6.00, after 1 week at +40°C
[24] = target: 28mer peptide of the CXCR5 antigen; assay: ELISA potency (binding); 100 mg/mL, Lysine (30) + NaCl (2), 7 days at 40°C
[25] = target: 28mer peptide of the CXCR5 antigen; assay: Antigen-ELISA; PB 10 mM pH 7.50, after mechanical stress 350 rpm 2.5 h
[26] = target: 28mer peptide of the CXCR5 antigen; assay: Antigen-ELISA; TRIS 10 mM pH 7.5, T0
[27] = target: 28mer peptide of the CXCR5 antigen; assay: Antigen-ELISA; standard run with LA_09_004_6
[28] = target: 28mer peptide of the CXCR5 antigen; assay: Ag-ELISA; DS in PBS, 25°C, 3 months
[29] = target: 28mer peptide of the CXCR5 antigen; assay: Antigen-ELISA; PB 5 mM pH 6.50, after 1 week at +40°C
[30] = target: 28mer peptide of the CXCR5 antigen; assay: Antigen-ELISA; PBS 155 mM, 1 h purged with N2, 24 h
[31] = target: 28mer peptide of the CXCR5 antigen; assay: Antigen-ELISA; Arginine 10 mM pH 6, T0
[32] = target: 28mer peptide of the CXCR5 antigen; assay: Antigen-ELISA; Succinate 10 mM pH 5.00, after 1 week at +40°C
[33] = target: 28mer peptide of the CXCR5 antigen; assay: Antigen-ELISA; standard run with LA_09_004_2
[34] = target: 28mer peptide of the CXCR5 antigen; assay: Antigen-ELISA; PB 10 mM pH 6.50, after 1 week at +40°C
[35] = target: 28mer peptide of the CXCR5 antigen; assay: ELISA potency (binding); 100 mg/mL, Sucrose (60) + Mannitol (15), 7 days at 40°C
[36] = target: 28mer peptide of the CXCR5 antigen; assay: Antigen-ELISA; PB 5 mM pH 7.00, after mechanical stress 350 rpm 2.5 h
[37] = target: 28mer peptide of the CXCR5 antigen; assay: Antigen-ELISA; TRIS 10 mM pH 8.5, T0
[38] = target: 28mer peptide of the CXCR5 antigen; assay: Antigen-ELISA; standard run with LA_09_28C, T0
[39] = target: 28mer peptide of the CXCR5 antigen; assay: Antigen-ELISA; Citrate 10 mM pH 6.00, after 1 week at +40°C
[40] = target: 28mer peptide of the CXCR5 antigen; assay: Antigen-ELISA; acetate 10 mM prototype A, T0
[41] = target: 28mer peptide of the CXCR5 antigen; assay: Antigen-ELISA; Histidine 10 mM pH 6.5, T0
[42] = target: 28mer peptide of the CXCR5 antigen; assay: Antigen-ELISA; PB 5 mM pH 7.50, after 1 week at +40°C
[43] = target: 28mer peptide of the CXCR5 antigen; assay: Antigen-ELISA; PBS 155 mM pH 7.00, after mechanical stress 350 rpm 2.5 h

B1: Lead CXCR5 Antibody (humanized IgG4 anti-CXCR5 antibody) (antibody, V domains shown)
VH: QVQLKESGPGLVAPSESLSITCTVSGFSLIDYGVNWIRQPPGKGLEWLGVIWGDGTTYYNPSLKSRLSISKDNSKSQVFLKVTSLTTDDTAMYYCARIVYWGQGTLVTVSA
VL: DIVMTQAAPSVAVTPGASVSISCRSSKSLLHSSGKTYLYWFLQRPGQSPQLLIYRLSSLASGVPDRFSGSGSGTAFTLRISRVEAEDVGVYYCMQHLEYPYTFGGGTKLEIKR
- rel. potency [%] [1]: 111%
- EC50 % [2]: 71%
- EC50 % [3]: 112%
- rel. potency [%] [4]: 170%
- EC50 % [5]: 132%
- rel. potency [%] [6]: 266%
- EC50 % [7]: 109%
- EC50 % [8]: 74%
- EC50 value (in comparison to reference) [9]: 93%
- EC50 % [10]: 106%
- EC50 % [11]: 41%
- EC50 % [12]: 115%
- EC50 % [13]: 79%
- EC50 % [14]: 100%
- EC50 % [15]: 94%
- EC50 value (in comparison to reference) [16]: 101%
- EC50 value (in comparison to reference) [17]: 104%
- EC50 value (in comparison to reference) [18]: 92%
- EC50 % [19]: 104%
- EC50 % [20]: 46%
- EC50 % [21]: 100%
- EC50 % [22]: 68%
- EC50 % [23]: 80.9%
- rel. potency [%] [24]: 264%
- EC50 % [25]: 60.9%
- EC50 % [26]: 104%
- EC50 % [27]: 100%
- EC50 % [28]: 108%
- EC50 % [29]: 77%
- EC50 % [30]: 89.3%
- EC50 % [31]: 114%
- EC50 % [32]: 157%
- EC50 % [33]: 100%
- EC50 % [34]: 78.8%
- rel. potency [%] [35]: 243%
- EC50 % [36]: 110%
- EC50 % [37]: 118%
- EC50 % [38]: 100%
- EC50 % [39]: 98%
- EC50 % [40]: 112%
- EC50 % [41]: 110%
- EC50 % [42]: 141%
- EC50 % [43]: 50%
